The results in this text go back to article PMC4216188.

The target in the assay is I53A FLAG-Pen-2 (human) (UniProt Q9NZ42). The experiment in a line: co-IP.
Chain of UniProt Q9NZ42 (Q9NZ42 whole entry I53A): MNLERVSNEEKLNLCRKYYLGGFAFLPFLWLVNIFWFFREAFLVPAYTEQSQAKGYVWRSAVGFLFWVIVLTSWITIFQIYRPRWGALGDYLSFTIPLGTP

In the case of “presenilin 1 C-terminal fragment (PS1-CTF) (domain or fragment)”, the PS1-CTF associated with immunoprecipitated Pen-2, percent of wt was < 40 % of wt.
